Measurements: patent US20250326842A1 (BEIGENE SWITZERLAND, published 2025)

Experiments:
[1] = target: T1, human PVRIG expressed on cells (human, UniProt Q6DKI7 41-326); experiment: flow cytometry on HuPVRIG-overexpressed Jurkat cells
T1 construct: Jurkat cells engineered to express human PVRIG; also called hPVRIG-Jurkat; native human PVRIG
T1 sequence: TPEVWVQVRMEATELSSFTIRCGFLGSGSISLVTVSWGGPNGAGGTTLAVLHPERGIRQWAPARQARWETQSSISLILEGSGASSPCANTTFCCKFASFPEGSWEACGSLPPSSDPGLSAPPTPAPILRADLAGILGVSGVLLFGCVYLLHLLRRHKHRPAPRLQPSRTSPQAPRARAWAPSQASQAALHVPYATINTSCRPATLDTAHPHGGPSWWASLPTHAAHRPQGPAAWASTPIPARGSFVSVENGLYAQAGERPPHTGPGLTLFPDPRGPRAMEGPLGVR

[2] = target: T2, Human Serum Albumin Protein His Tag (human, UniProt P02768 25-609); experiment: immunohistochemistry on protein smears, Biotin-BGA384
T2 construct: also called negative control protein smear; not shown: His tag
Description: Materials and Methods: A total of 35 tissue types, each in triplicate from 3 donors, were used for the evaluation. […] 0.5 and […] Biotin-Human IgG1-Kappa (IgG1 isotype control), and 0.01 mol/L phosphate-buffered saline (reagent control).

[3] = target: T3, Cyno PVRIG expressed on HEK293 cells (cynomolgus monkey); experiment: flow cytometry on HEK293 cells expressing cyno PVRIG, anti-hFc-647 detection [panel B]
T3 construct: also called native Cyno PVRIG
T3 chain: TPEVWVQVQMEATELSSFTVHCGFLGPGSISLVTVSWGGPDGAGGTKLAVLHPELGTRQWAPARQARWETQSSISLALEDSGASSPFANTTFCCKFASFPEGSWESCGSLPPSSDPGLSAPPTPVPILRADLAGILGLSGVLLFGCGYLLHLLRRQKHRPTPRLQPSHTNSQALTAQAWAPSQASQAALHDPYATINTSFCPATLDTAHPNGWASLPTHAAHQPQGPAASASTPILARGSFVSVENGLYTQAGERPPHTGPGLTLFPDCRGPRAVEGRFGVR
Method: To evaluate the binding activity of anti-PVRIG antibodies to native Cyno PVRIG on living cells. HEK293 cells were engineered to express Cyno PVRIG. HEK293 cells transfected with Cyno PVRIG were seeded in 96 well plates and were incubated with a serial dilution of anti-PVRIG antibodies. […] EC50 values for dose dependent binding to Cyno native PVRIG were determined by fitting the dose response data to the four-parameter logistic model with GraphPad Prism™.

T2 sequence (P02768 25-609 limits assumed): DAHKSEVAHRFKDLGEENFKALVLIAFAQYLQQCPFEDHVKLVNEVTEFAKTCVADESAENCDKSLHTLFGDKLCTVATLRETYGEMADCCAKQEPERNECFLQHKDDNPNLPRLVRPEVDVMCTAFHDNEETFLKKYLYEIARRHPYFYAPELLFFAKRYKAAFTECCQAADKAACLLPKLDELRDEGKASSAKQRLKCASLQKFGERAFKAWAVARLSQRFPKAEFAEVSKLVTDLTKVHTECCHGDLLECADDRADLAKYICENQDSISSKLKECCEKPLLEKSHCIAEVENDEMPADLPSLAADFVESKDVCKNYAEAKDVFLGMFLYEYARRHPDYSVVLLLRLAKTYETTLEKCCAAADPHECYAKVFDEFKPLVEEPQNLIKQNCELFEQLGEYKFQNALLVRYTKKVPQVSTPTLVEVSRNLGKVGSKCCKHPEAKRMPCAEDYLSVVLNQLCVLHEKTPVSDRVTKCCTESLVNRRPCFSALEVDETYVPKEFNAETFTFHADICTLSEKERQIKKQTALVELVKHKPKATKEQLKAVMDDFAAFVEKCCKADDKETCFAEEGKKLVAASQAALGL

- EC50 [1]: 0.0269 µg/mL
- binding result [2]: no binding (tested: 0.5 and 1 µg/mL)
- EC50 (read off the curve) [3]: ~0.05 µg/mL
B1: BGA384 (antibody, human IgG1, kappa)
heavy: not shown
light: QIVLTQSPATLSLSPGERATLSCSAGSSVNYMHWFQQKPGQAPRLLIYSTSNLASGVPARFSGSGSGTDYTLTISSLEPEDFAVYYCQQRSSLPFTFGQGTKLEIKRTVAAPSVFIFPPSDEQLKSGTASVVCLLNNFYPREAKVQWKVDNALQSGNSQESVTEQDSKDSTYSLSSTLTLSKADYEKHKVYACEVTHQGLSSPVTKSFNRGEC
notes: also called BGB-A538; BGA384 WT
